Experimental findings from article PMC9357107 are described below.

Experiment [1] has as its target linker domain of human IGFBP2 (L-hIGFBP2; residues A97-C191) (human). The experiment in a line: NMR titration.
For experiment [2], the target named is insulin-like growth factor 2 (IGF-2) (human) (UniProt P01344). The experiment in a line: SPR. In general terms: SPR reads the build-up and loss of mass on a sensor chip optically.
Experiment [3] deals with insulin-like growth factor 1 (IGF-1) (human) (UniProt P05019). The experiment in a line: SPR.

UniProt P01344, sequence (P01344 25-91): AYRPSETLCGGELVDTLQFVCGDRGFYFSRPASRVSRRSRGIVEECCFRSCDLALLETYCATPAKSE

What is called stoichiometry N is the number of molecules, sites or subunits per partner or assembly. With “insulin-like growth factor 1 (IGF-1) (from UniProt P05019 49-118) (ligand)”, in experiment [1], the stoichiometry N came to 1.
What is called Kd is the free concentration of one partner at which half of the binding sites on the other are occupied at equilibrium, for simple one-to-one binding. A lower Kd goes with tighter binding. With “linker domain of human IGFBP2 (L-hIGFBP2; residues A97-C191) (domain or fragment)”, the Kd in experiment [2] came to 3.7 µM; in experiment [3], 4.1 µM.
